Reference: patent publication US20250019439A1 (Adimab, published 2025)

Key:
[1] = molecular target: T1, ADI-22523 IgG; test: BLI; tip anti-ID IgG, solution ADI-22523 IgG
T1 construct: anti-CD3 IgG
In short: (§1)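 Bio-layer interferometry with anti-ID IgG loaded on AHC tips. KD (koff/kon) from 1:1 binding model fit; avid format.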

[2] = molecular target: T2, ADI-67447; test: SPR Carterra avidity, yeast anti-ID
T2 construct: anti-CD3 antibody made in CHO cells, captured by anti-human Fc
In short: (§2)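 Anti-CD3 IgGs (100 nM) captured on goat anti-human Fc amine-coupled HC30M chip; anti-idiotype antibodies flowed as analytes, dissociation 300 s, HBSTE running buffer, 25° C. Double-referenced sensorgrams fitted to 1:1 model; glycine pH 1.7 regeneration.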

[3] = molecular target: T3, ADI-26924; test: SPR Carterra avidity, yeast anti-ID
T3 construct: anti-CD3 antibody made in CHO cells, captured by anti-human Fc
In short: as §2

[4] = molecular target: T4, ADI-67450; test: SPR Carterra avidity, yeast anti-ID
T4 construct: anti-CD3 antibody made in CHO cells, captured by anti-human Fc
In short: as §2

[5] = molecular target: T5, ADI-26912; test: SPR Carterra avidity, yeast anti-ID
T5 construct: anti-CD3 antibody made in CHO cells, captured by anti-human Fc
In short: as §2

[6] = molecular target: T6, ADI-74966; test: SPR Carterra avidity, yeast anti-ID
T6 construct: pH-dependent anti-CD3 antibody made in CHO cells
In short: as §2

[7] = molecular target: T7, ADI-76362; test: SPR Carterra avidity, yeast anti-ID
T7 construct: anti-CD3 antibody made in CHO cells, captured by anti-human Fc
In short: as §2

[8] = molecular target: T8, ADI-50024; test: SPR Carterra avidity, yeast anti-ID
T8 construct: anti-CD3 antibody made in CHO cells, captured by anti-human Fc
In short: as §2

[9] = molecular target: T9, ADI-48592; test: SPR Carterra avidity, yeast anti-ID
T9 construct: pH-dependent anti-CD3 antibody made in CHO cells
In short: as §2

[10] = molecular target: T10, ADI-74965; test: SPR Carterra avidity, yeast anti-ID
T10 construct: pH-dependent anti-CD3 antibody made in CHO cells
In short: as §2

[11] = molecular target: T11, ADI-76358; test: SPR Carterra avidity, yeast anti-ID
T11 construct: anti-CD3 antibody made in CHO cells, captured by anti-human Fc
In short: as §2

[12] = molecular target: T12, ADI-48576; test: SPR Carterra avidity, yeast anti-ID
T12 construct: pH-dependent anti-CD3 antibody made in CHO cells
In short: as §2

[13] = molecular target: T13, ADI-74968; test: SPR Carterra avidity, yeast anti-ID
T13 construct: pH-dependent anti-CD3 antibody made in CHO cells
In short: as §2

[14] = molecular target: T14, ADI-76361; test: SPR Carterra avidity, yeast anti-ID
T14 construct: anti-CD3 antibody made in CHO cells, captured by anti-human Fc
In short: as §2

[15] = molecular target: T15, ADI-76359; test: SPR Carterra avidity, yeast anti-ID
T15 construct: anti-CD3 antibody made in CHO cells, captured by anti-human Fc
In short: as §2

[16] = molecular target: T16, ADI-26919; test: SPR Carterra avidity, yeast anti-ID
T16 construct: anti-CD3 antibody made in CHO cells, captured by anti-human Fc
In short: as §2

[17] = molecular target: T17, ADI-26916 IgG; test: SPR Carterra avidity, yeast anti-ID
T17 construct: anti-CD3 IgG
In short: as §2

[18] = molecular target: T18, ADI-48650; test: SPR Carterra avidity, yeast anti-ID
T18 construct: pH-dependent anti-CD3 antibody made in CHO cells
In short: as §2

[19] = molecular target: T19, ADI-76360; test: SPR Carterra avidity, yeast anti-ID
T19 construct: anti-CD3 antibody made in CHO cells, captured by anti-human Fc
In short: as §2

[20] = molecular target: T20, ADI-74967; test: SPR Carterra, yeast anti-ID
T20 construct: pH-dependent anti-CD3 antibody made in CHO cells
In short: as §2

[21] = molecular target: T21, ADI-70326; test: SPR Carterra, yeast anti-ID
T21 construct: anti-CD3 antibody made in CHO cells, captured by anti-human Fc
In short: as §2

[22] = molecular target: T22, ADI-67445; test: SPR Carterra, yeast anti-ID
T22 construct: anti-CD3 antibody made in CHO cells, captured by anti-human Fc
In short: as §2

[23] = molecular target: T23, ADI-26921 IgG; test: SPR Carterra, yeast anti-ID
T23 construct: anti-CD3 IgG
In short: as §2

[24] = molecular target: T24, ADI-26909; test: SPR Carterra, yeast anti-ID
T24 construct: anti-CD3 antibody made in CHO cells, captured by anti-human Fc
In short: as §2

[25] = molecular target: T25, CTL-62227; test: SPR Carterra, yeast anti-ID
T25 construct: also called odronextamab
In short: as §2

[26] = molecular target: T26, CTL-62223; test: SPR Carterra, yeast anti-ID
T26 construct: also called mosunetuzumab
In short: as §2

[27] = molecular target: T27, ADI-48587; test: SPR Carterra, yeast anti-ID
T27 construct: pH-dependent anti-CD3 antibody made in CHO cells
In short: as §2

[28] = molecular target: T28, ADI-26915; test: SPR Carterra, yeast anti-ID
T28 construct: anti-CD3 antibody made in CHO cells, captured by anti-human Fc
In short: as §2

[29] = molecular target: T29, CTL-62240; test: SPR Carterra, yeast anti-ID
T29 construct: also called ONO-4685
In short: as §2

[30] = molecular target: T30, ADI-70327; test: SPR Carterra, yeast anti-ID
T30 construct: anti-CD3 antibody made in CHO cells, captured by anti-human Fc
In short: as §2

[31] = molecular target: T31, CTL-62228; test: SPR Carterra, yeast anti-ID
T31 construct: also called glofitamab
In short: as §2

[32] = molecular target: T32, ADI-70330; test: SPR Carterra, yeast anti-ID
T32 construct: anti-CD3 antibody made in CHO cells, captured by anti-human Fc
In short: as §2

[33] = molecular target: T33, ADI-22523 Fab; test: BLI; tip anti-ID IgG, solution ADI-22523 Fab
T33 construct: anti-CD3 Fab by papain digestion of the IgG
In short: as §1

[34] = molecular target: T34, ADI-26943; test: SPR Carterra avidity, yeast anti-ID, *koff limit
T34 construct: anti-CD3 antibody made in CHO cells, captured by anti-human Fc
In short: as §2

[35] = molecular target: T35, ADI-26920 IgG; test: SPR Carterra avidity, yeast anti-ID, *koff limit
T35 construct: anti-CD3 IgG
In short: as §2

[36] = molecular target: T36, ADI-26906 IgG; test: SPR Carterra avidity, yeast anti-ID, *koff limit
T36 construct: anti-CD3 IgG
In short: as §2

[37] = molecular target: T37, ADI-76357; test: SPR Carterra avidity, yeast anti-ID, *koff limit
T37 construct: anti-CD3 antibody made in CHO cells, captured by anti-human Fc
In short: as §2

[38] = molecular target: T38, ADI-26913 IgG; test: SPR Carterra avidity, yeast anti-ID, *koff limit
T38 construct: anti-CD3 IgG
In short: as §2

[39] = molecular target: T34, ADI-26943; test: SPR Carterra avidity, yeast anti-ID
In short: as §2

[40] = molecular target: T20, ADI-74967; test: SPR Carterra avidity, yeast anti-ID
In short: as §2

[41] = molecular target: T21, ADI-70326; test: SPR Carterra avidity, yeast anti-ID
In short: as §2

[42] = molecular target: T22, ADI-67445; test: SPR Carterra avidity, yeast anti-ID
In short: as §2

[43] = molecular target: T23, ADI-26921 IgG; test: SPR Carterra avidity, yeast anti-ID
In short: as §2

[44] = molecular target: T24, ADI-26909; test: SPR Carterra avidity, yeast anti-ID
In short: as §2

[45] = molecular target: T27, ADI-48587; test: SPR Carterra avidity, yeast anti-ID
In short: as §2

[46] = molecular target: T28, ADI-26915; test: SPR Carterra avidity, yeast anti-ID
In short: as §2

[47] = molecular target: T30, ADI-70327; test: SPR Carterra avidity, yeast anti-ID
In short: as §2

[48] = molecular target: T37, ADI-76357; test: SPR Carterra avidity, yeast anti-ID
In short: as §2

[49] = molecular target: T32, ADI-70330; test: SPR Carterra avidity, yeast anti-ID
In short: as §2

[50] = molecular target: T38, ADI-26913 IgG; test: SPR Carterra avidity, yeast anti-ID
In short: as §2

[51] = molecular target: T9, ADI-48592; test: SPR Carterra, yeast anti-ID
In short: as §2

[52] = molecular target: T12, ADI-48576; test: SPR Carterra, yeast anti-ID
In short: as §2

[53] = molecular target: T16, ADI-26919; test: SPR Carterra avidity, yeast anti-ID, *koff limit
In short: as §2

T29 sequence (VH, as listed by the source, chain 1 of 2): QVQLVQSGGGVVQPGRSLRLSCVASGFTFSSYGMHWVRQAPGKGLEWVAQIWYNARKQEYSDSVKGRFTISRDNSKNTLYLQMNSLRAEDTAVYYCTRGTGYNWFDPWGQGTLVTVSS
T29 sequence (VL, as listed by the source, chain 2 of 2): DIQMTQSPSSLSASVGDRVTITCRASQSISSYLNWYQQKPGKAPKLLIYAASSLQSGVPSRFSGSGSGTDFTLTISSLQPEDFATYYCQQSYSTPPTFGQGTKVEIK
T32 sequence (VH, as listed by the source limits assumed, chain 1 of 2): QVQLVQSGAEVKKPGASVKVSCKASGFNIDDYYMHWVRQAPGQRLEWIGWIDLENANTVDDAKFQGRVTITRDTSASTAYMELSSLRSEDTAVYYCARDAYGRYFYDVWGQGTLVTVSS
T32 sequence (VL, as listed by the source limits assumed, chain 2 of 2): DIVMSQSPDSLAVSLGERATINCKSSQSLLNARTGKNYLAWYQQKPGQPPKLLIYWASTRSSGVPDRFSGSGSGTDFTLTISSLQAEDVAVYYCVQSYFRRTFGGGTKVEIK
T9 sequence (VH, as listed by the source, chain 1 of 2): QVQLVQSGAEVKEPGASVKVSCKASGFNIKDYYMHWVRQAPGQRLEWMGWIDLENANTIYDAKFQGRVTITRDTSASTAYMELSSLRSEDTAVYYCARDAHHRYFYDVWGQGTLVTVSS
T9 sequence (VL, as listed by the source, chain 2 of 2): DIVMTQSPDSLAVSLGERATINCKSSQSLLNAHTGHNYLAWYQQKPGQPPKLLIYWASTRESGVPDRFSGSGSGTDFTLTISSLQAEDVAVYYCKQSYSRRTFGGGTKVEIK
T15 sequence (VH, as listed by the source, chain 1 of 2): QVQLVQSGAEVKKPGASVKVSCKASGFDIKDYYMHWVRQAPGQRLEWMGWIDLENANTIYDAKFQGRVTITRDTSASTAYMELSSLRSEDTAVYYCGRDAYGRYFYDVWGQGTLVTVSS
T15 sequence (VL, as listed by the source, chain 2 of 2): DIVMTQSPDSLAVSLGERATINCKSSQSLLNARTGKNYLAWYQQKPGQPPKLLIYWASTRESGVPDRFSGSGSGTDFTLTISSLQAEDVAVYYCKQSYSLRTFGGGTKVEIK
T8 sequence (VH, as listed by the source limits assumed, chain 1 of 2): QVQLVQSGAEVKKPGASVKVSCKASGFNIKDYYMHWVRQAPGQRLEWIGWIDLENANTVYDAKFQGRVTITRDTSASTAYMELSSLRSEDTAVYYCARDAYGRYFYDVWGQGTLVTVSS
T11 sequence (VH, as listed by the source, chain 1 of 2): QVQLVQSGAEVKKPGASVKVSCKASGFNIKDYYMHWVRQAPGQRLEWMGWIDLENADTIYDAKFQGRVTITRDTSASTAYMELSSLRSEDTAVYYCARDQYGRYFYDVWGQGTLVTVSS
T11 sequence (VL, as listed by the source, chain 2 of 2): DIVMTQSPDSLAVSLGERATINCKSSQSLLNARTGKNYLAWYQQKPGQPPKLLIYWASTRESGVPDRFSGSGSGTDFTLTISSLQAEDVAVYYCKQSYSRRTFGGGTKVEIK
T19 sequence (VH, as listed by the source, chain 1 of 2): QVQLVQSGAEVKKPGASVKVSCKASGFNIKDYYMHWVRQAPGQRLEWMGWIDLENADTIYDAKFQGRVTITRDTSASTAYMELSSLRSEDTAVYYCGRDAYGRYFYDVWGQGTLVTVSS
T24 sequence (VH, as listed by the source limits assumed, chain 1 of 2): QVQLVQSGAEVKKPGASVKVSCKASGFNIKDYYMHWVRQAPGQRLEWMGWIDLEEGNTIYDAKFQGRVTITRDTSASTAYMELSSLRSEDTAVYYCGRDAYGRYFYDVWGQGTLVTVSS
T13 sequence (VH, as listed by the source, chain 1 of 2): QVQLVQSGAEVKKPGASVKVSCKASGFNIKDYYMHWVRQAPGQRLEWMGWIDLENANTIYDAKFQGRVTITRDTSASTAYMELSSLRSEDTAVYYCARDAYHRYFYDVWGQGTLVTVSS
T13 sequence (VL, as listed by the source, chain 2 of 2): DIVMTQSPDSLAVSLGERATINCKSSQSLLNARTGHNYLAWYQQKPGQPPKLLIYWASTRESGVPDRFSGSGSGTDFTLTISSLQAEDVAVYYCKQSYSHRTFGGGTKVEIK
T10 sequence (VL, as listed by the source, chain 2 of 2): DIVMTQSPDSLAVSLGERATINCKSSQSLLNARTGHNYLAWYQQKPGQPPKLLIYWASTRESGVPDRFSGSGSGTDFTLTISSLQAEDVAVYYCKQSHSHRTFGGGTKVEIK
T18 sequence (VH, as listed by the source, chain 1 of 2): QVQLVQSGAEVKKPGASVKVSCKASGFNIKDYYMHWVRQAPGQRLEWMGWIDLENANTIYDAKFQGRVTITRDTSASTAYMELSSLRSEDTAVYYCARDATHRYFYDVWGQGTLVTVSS
T18 sequence (VL, as listed by the source, chain 2 of 2): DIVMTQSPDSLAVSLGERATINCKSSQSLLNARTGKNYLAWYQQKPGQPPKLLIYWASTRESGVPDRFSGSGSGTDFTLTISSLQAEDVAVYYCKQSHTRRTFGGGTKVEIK
T21 sequence (VH, as listed by the source limits assumed, chain 1 of 2): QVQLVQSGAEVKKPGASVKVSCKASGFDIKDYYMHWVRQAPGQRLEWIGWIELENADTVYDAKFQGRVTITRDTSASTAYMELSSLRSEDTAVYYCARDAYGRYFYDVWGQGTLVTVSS
T30 sequence (VH, as listed by the source limits assumed, chain 1 of 2): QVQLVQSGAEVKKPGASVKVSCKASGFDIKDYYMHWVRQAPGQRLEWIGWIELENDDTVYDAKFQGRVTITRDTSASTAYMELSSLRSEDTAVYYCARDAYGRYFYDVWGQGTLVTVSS
T37 sequence (VH, as listed by the source, chain 1 of 2): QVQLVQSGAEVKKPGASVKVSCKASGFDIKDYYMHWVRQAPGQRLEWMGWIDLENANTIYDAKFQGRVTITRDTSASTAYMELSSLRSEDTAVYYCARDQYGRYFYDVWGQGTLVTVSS
T3 sequence (VH, as listed by the source, chain 1 of 2): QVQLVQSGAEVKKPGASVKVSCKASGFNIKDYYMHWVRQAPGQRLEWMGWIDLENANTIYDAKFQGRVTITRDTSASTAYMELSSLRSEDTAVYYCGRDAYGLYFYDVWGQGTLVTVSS
T5 sequence (VH, as listed by the source, chain 1 of 2): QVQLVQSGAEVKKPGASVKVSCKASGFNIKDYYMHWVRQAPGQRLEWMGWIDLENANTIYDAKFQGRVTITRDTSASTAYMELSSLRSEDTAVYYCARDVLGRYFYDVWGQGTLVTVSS
T34 sequence (VH, as listed by the source, chain 1 of 2): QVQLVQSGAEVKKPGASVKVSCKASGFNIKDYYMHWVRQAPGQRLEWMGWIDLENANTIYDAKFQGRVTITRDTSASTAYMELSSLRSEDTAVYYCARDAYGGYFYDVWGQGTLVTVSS
T34 sequence (VL, as listed by the source, chain 2 of 2): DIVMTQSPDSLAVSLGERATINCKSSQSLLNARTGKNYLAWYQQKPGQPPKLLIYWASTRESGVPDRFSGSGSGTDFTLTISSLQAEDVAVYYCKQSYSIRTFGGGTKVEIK
T38 sequence (VH, as listed by the source limits assumed, chain 1 of 2): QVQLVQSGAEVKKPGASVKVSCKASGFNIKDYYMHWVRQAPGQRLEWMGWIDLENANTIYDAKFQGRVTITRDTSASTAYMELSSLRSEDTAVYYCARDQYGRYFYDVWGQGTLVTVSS

B1: ADI-34144 (antibody, V domains shown)
VH: EVQLLESGGGLVQPGGSLRLSCAASGFTFSSYAMSWVRQAPGKGLEWVSTISGSGGSTYYADSVKGRFTISRDNSKNTLYLQMNSLRAEDTAVYYCARLGGRRGSGSSYYYYYGMDVWGQGTTVTVSS
VL: not shown
notes: anti-ID IgG
Kd [1]: 2.6 nM | Kd [2]: 22 nM | Kd [3]: 4.9 nM | binding result [4]: binds | binding result [5]: binds | Kd [6]: 59 nM | binding result [7]: binds | binding result [8]: binds | binding result [9]: binds | binding result [10]: binds | binding result [11]: binds | binding result [12]: binds | Kd [13]: 72 nM | binding result [14]: binds | Kd [15]: 17 nM | Kd [16]: 32 nM | Kd [17]: 16 nM | binding result [18]: binds | binding result [19]: binds | binding result [20]: no binding (tested: up to 200 nM) | binding result [21]: no binding (tested: up to 200 nM) | binding result [22]: no binding (tested: up to 200 nM) | binding result [23]: no binding (tested: up to 200 nM) | binding result [24]: no binding (tested: up to 200 nM) | binding result [25]: no binding (tested: up to 200 nM) | binding result [26]: no binding (tested: up to 200 nM) | binding result [27]: no binding (tested: up to 200 nM) | binding result [28]: no binding (tested: up to 200 nM) | binding result [29]: no binding (tested: up to 200 nM) | binding result [30]: no binding (tested: up to 200 nM) | binding result [31]: no binding (tested: up to 200 nM) | binding result [32]: no binding (tested: up to 200 nM) | Kd [33]: 6.17 nM | Kd [34]: 5.1 nM | Kd [35]: 7.5 nM | Kd [36]: 12 nM | Kd [37]: 6.3 nM | Kd [38]: 8.6 nM

B2: ADI-34133 (antibody, V domains shown)
VH: QVQLVQSGAEVKKPGSSVKVSCKASGGTFSSYAISWVRQAPGQGLEWMGGIIPIFGTANYAQKFQGRVTITADESTSTAYMELSSLRSEDTAVYYCARGAPNYYGSGGYDDGWFDPWGQGTLVTVSS
VL: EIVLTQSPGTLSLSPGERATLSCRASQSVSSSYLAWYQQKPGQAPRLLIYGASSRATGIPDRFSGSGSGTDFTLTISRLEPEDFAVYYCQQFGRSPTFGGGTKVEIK
notes: anti-ID IgG
Kd [1]: 0.59 nM | Kd [39]: 0.65 nM | Kd [40]: 1.9 nM | Kd [2]: 1.3 nM | Kd [3]: 1.1 nM | binding result [41]: binds | Kd [42]: 1.1 nM | Kd [4]: 2 nM | Kd [5]: 52 nM | Kd [43]: 0.96 nM | binding result [6]: binds | Kd [7]: 2 nM | Kd [44]: 1.3 nM | Kd [8]: 1.1 nM | Kd [45]: 20 nM | binding result [46]: binds | Kd [10]: 18 nM | binding result [11]: binds | binding result [47]: binds | Kd [13]: 8.2 nM | Kd [48]: 0.96 nM | Kd [49]: 1.9 nM | Kd [50]: 1.9 nM | Kd [14]: 0.91 nM | Kd [15]: 0.24 nM | binding result [17]: binds | Kd [18]: 40 nM | Kd [19]: 1.7 nM | binding result [25]: no binding (tested: up to 200 nM) | binding result [51]: no binding (tested: up to 200 nM) | binding result [29]: no binding (tested: up to 200 nM) | binding result [52]: no binding (tested: up to 200 nM) | binding result [31]: no binding (tested: up to 200 nM) | Kd [33]: 9.59 nM | Kd [35]: 0.24 nM | Kd [36]: 0.3 nM | Kd [53]: 0.35 nM
